B1: ZER1 (parent)
chain: KEMARKVIEHCSNFKEENMDTSR
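Further: lentivirally expressed fusions sorted by FACS into six bins by GFP to DsRed ratio, PSI derived from sequencing read proportions per bin multiplied by bin number.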

In the data set the parent is B1. In words: protein stability index of a GFP-peptide fusion (GPS, HEK-293T) (PSI 1-6); higher = more stable. The following applies: c terminus: native.
With KEMARKVIEHCSNFKEEGMDTSR [N18G], the protein stability index turned out to be 4.02.
Next, KEMARKVIEHCSNFKEEFMDTSR [N18F]: 3.07.
The result for KEMARKVIEHCSNFKEETMDTSR [N18T] reads 3.45.
For KEMARKVIEHCSNFKEESMDTSR [N18S], the protein stability index was found to be 3.7.
Next, KEMARKVIEHCSNFKEEKMDTSR [N18K]: 2.99; KEMARKVIEHCSNFKEENMDTPR [S22P]: 4.29.
On to KEMARKVIEHCSNFKEENMDTLR [S22L], for which the protein stability index is 3.58.
The result for KEMARKVIEHCSNFKEENMDTGR [S22G] reads 3.48.
The result for KEMARKVIEHCSNFKEENMDTAR [S22A] reads 2.64.
Next, KEMARKVIEHCSNFKEENMDTMR [S22M]: 3.43; KEMAWKVIEHCSNFKEENMDTSR [R5W]: 1.94; KEMADKVIEHCSNFKEENMDTSR [R5D]: 4.9.
As to KEMASKVIEHCSNFKEENMDTSR [R5S], the protein stability index stood at 3.81.
Next, KEMAYKVIEHCSNFKEENMDTSR [R5Y]: 2.68; KEMARKVIEHCSNFKEENMDTSV [R23V]: 4.76.
The result for KEMARKVIEHCSNFKEENMDTSI [R23I] reads 4.9.
Regarding KEMARKVIEHCSNFKEENMDTSM [R23M], the protein stability index is 4.6.
KEMARKVIEHCSNFKEENMDTST [R23T]: the protein stability index was found to be 5.01.
The result for KEMARKVIEHCSNFKEENTDTSR [M19T] reads 3.92; that for KEMARKVIEHCSNFKEENIDTSR [M19I], 4.32.
Consider KEMARKVIEHCSNFKEENHDTSR [M19H], for which the protein stability index was 3.77.
Next, KEMARKVIEHCSNFKEENGDTSR [M19G]: 3.37.
Next, KEMARKVIEHCSNFKEENSDTSR [M19S]: 3.63.
As for KEMARKVIEHCSNFKEENCDTSR [M19C], the protein stability index worked out at 3.51.
Next, KEMARKVIEHCSNFKEENPDTSR [M19P]: 3.58; KEMARFVIEHCSNFKEENMDTSR [K6F]: 1.72; KEMARDVIEHCSNFKEENMDTSR [K6D]: 4.19.
For the variant KEMARWVIEHCSNFKEENMDTSR [K6W], the protein stability index was found to be 2.71.
As to KEMARSVIEHCSNFKEENMDTSR [K6S], the protein stability index was 2.96.
With KEMARKVIEHCLNFKEENMDTSR [S12L], the protein stability index stood at 2.45.
With KEMARKVIEHCQNFKEENMDTSR [S12Q], the protein stability index worked out at 3.55.
As for KEMARKVIEHCVNFKEENMDTSR [S12V], the protein stability index came out at 2.96.
The result for KEMARKVIEHCNNFKEENMDTSR [S12N] reads 3.95; that for KEMARKVIEHCSNFKEENMGTSR [D20G], 2.68; that for KEMARKVIEHCSNFKEENMDLSR [T21L], 3.26.
With KEMARKVIEHCSNFKEENMDCSR [T21C], the protein stability index is 3.39.
The result for KEMARKVIEHCSNFKEENMDRSR [T21R] reads 1.65; that for KEMARKVIEHCSNFKEENMDISR [T21I], 3.16; that for KEMARKVIEHCSNFKEENMDSSR [T21S], 4.65.
Consider KEMARKVIEHCSNFKEENMDVSR [T21V], for which the protein stability index was determined as 3.1.
For the variant KEMARKVIEHCSNFKEENMDNSR [T21N], the protein stability index is 4.48.
Consider KEMARKVREHCSNFKEENMDTSR [I8R], for which the protein stability index was 4.33.
On to KEMARKVGEHCSNFKEENMDTSR [I8G], for which the protein stability index is 4.64.
Next, KEMARKVIEHCSNFLEENMDTSR [K15L]: 3.13; KEMARKVIEHCSNFDEENMDTSR [K15D]: 4.24.
Next, KEMARKVIEHCSNFWEENMDTSR [K15W]: 2.85; KEMARKVIEHCSNFGEENMDTSR [K15G]: 3.7.
Next, KEMARKVIEHCSNFVEENMDTSR [K15V]: 3.9; KEMARKVIEHCSNFKGENMDTSR [E16G]: 3.83; KEMARKVIEHCSNFKHENMDTSR [E16H]: 2.79.
Take KEMARKVIEHCSNFKYENMDTSR [E16Y]: the protein stability index came out at 2.37.
The result for KEMARKVIEHCSNFKKENMDTSR [E16K] reads 3.85; that for KEMARKVIEACSNFKEENMDTSR [H10A], 3.49; that for KEMARKVIEMCSNFKEENMDTSR [H10M], 1.81.
For the variant KEMARKVIELCSNFKEENMDTSR [H10L], the protein stability index came out at 1.76.
The result for KTMARKVIEHCSNFKEENMDTSR [E2T] reads 3.39; that for KAMARKVIEHCSNFKEENMDTSR [E2A], 3.23.
Consider KVMARKVIEHCSNFKEENMDTSR [E2V], for which the protein stability index was 3.52.
In the case of KSMARKVIEHCSNFKEENMDTSR [E2S], the protein stability index amounted to 2.74.
The result for KEMERKVIEHCSNFKEENMDTSR [A4E] reads 4.39; that for KEMIRKVIEHCSNFKEENMDTSR [A4I], 2.32; that for KEMGRKVIEHCSNFKEENMDTSR [A4G], 4.45.
Next, KEMSRKVIEHCSNFKEENMDTSR [A4S]: 4.13; KEMARKVIEHHSNFKEENMDTSR [C11H]: 3.87.
On to KEMARKVIEHFSNFKEENMDTSR [C11F], for which the protein stability index was 1.38.
Next, KEMARKVIEHASNFKEENMDTSR [C11A]: 4.77; PEMARKVIEHCSNFKEENMDTSR [K1P]: 3.36.
As for REMARKVIEHCSNFKEENMDTSR [K1R], the protein stability index was found to be 4.31.
For the variant KEMARKVIEHCSWFKEENMDTSR [N13W], the protein stability index was 2.4.
Next, KEMARKVIEHCSDFKEENMDTSR [N13D]: 3.61; KEMARKVIEHCSGFKEENMDTSR [N13G]: 3.5; KEMARKVIEHCSHFKEENMDTSR [N13H]: 3.53.
As for KEIARKVIEHCSNFKEENMDTSR [M3I], the protein stability index worked out at 3.29.
Next, KELARKVIEHCSNFKEENMDTSR [M3L]: 3.52; KEHARKVIEHCSNFKEENMDTSR [M3H]: 4.05; KEAARKVIEHCSNFKEENMDTSR [M3A]: 4.49.
For KERARKVIEHCSNFKEENMDTSR [M3R], the protein stability index is 3.98.
On to KEMARKLIEHCSNFKEENMDTSR [V7L], for which the protein stability index turned out to be 1.92.
Take KEMARKIIEHCSNFKEENMDTSR [V7I]: the protein stability index came to 1.59.
Next, KEMARKQIEHCSNFKEENMDTSR [V7Q]: 4.87; KEMARKYIEHCSNFKEENMDTSR [V7Y]: 2.09; KEMARKVIEHCSNDKEENMDTSR [F14D]: 5.02.
The result for KEMARKVIEHCSNCKEENMDTSR [F14C] reads 3.91; that for KEMARKVIEHCSNQKEENMDTSR [F14Q], 4.73; that for KEMARKVIEHCSNHKEENMDTSR [F14H], 4.8.
The result for KEMARKVIEHCSNIKEENMDTSR [F14I] reads 4.35; that for KEMARKVIEHCSNFKEVNMDTSR [E17V], 2.74; that for KEMARKVIEHCSNFKEHNMDTSR [E17H], 2.83.
Consider KEMARKVIEHCSNFKEGNMDTSR [E17G], for which the protein stability index stood at 3.4.
With KEMARKVIEHCSNFKEFNMDTSR [E17F], the protein stability index is 2.79.
The result for KEMARKVIEHCSNFKEWNMDTSR [E17W] reads 2.2; that for KEMARKVIEHCSNFKEKNMDTSR [E17K], 2.84.
Next, KEMARKVIRHCSNFKEENMDTSR [E9R]: 4.01; KEMARKVIGHCSNFKEENMDTSR [E9G]: 4.29.
Next, KEMARKVIHHCSNFKEENMDTSR [E9H]: 3.92; KEMARKVIKHCSNFKEENMDTSR [E9K]: 4.37.
On to KEMARKVINHCSNFKEENMDTSR [E9N], for which the protein stability index came to 4.29.
